In patent US20100247515A1 (DOMANTIS, published 2010):

Molecular target: T1, TNFR1 on MRC-5 fibroblasts (UniProt P19438 30-455, limits assumed)
T1 sequence (looked up): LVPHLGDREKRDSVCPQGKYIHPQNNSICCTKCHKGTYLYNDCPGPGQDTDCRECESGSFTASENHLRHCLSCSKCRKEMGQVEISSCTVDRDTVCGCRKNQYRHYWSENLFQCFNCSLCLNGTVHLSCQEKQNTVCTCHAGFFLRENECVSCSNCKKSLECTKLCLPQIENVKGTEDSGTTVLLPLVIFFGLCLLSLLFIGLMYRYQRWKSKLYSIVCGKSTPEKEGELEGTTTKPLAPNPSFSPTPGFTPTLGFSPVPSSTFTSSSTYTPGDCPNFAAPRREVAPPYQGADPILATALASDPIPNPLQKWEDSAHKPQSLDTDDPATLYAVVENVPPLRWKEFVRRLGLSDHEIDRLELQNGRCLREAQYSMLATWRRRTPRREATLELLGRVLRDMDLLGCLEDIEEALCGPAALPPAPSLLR
Assay: cell-based or functional assay

B1: DOM1h-131-203 (other)
VH: EVQLWESGGGLVQPGGSLRLSCAASGFTFAHETMVWVRQAPGKGLEWVSHIPPDGQDPFYADSVKGRFTISRDNSKNTLYLQMNSLRAEDTAVYYCALLPKRGPWIDYWGQGTLVTVSS
  ND50, MRC-5 cell-based assay: 2.28 nM

B2: DOM1h-131-204 (other)
VH: EVQLSESGGGLVQPGGSLRLSCAASGFTFAHETMVWVRQAPGKGLEWVSHIPPDGQDPFYADSVKGRFTISRDNSKNTLYLQMNSLRAEDTAVYYCALLPNRGPWFDYWGQGTLVTVSS
  ND50, MRC-5 cell-based assay: 1.89 nM
